Laboratory results from patent publication US20180155451A1 (published 2018).

Each binder was assayed against T1, FcγRIIa R (human, UniProt P12318 34-217) (assay: SPR (Biacore), antibody captured via antigen peptide, FcγRIIa R as analyte; heterodimerized antibody).
T1 construct: extracellular domain; Soluble extracellular domain with C-terminal His tag, expressed in FreeStyle293 cells; also called FcgRIIa R; FcγRIIa type R; not shown: His tag attached to the C terminus
T1 sequence (looked up): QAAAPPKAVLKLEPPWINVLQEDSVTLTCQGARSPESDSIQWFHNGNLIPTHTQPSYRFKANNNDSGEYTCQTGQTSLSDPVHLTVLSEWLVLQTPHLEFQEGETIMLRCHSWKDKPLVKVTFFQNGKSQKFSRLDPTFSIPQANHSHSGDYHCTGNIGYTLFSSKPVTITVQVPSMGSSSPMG
Method: Analysis of interaction between objective antibody and the FcγR was carried out using Biacore T100 (GE Healthcare). HBS-EP+ (GE Healthcare) was used as the running buffer, and the measurement temperature was set to 25° C. Chips produced by immobilizing the antigen peptide by the amine coupling method to a Series S Sencor Chip CM5 (GE Healthcare), or alternatively, chips produced by allowing preliminarily biotinylated antigen peptides to interact with and immobilize onto a Series S Sensor Chip SA (certified) (GE Healthcare) were used. Antibodies of interest were captured onto an antigen peptide-immobilized chip, and allowed to interact to each FcγR diluted with running buffer. To regenerate and repeatedly use the chip, the antibodies captured on the chip were washed off by reacting 10 mM glycine-HCl, pH 1.5.

| He/Con_2aR | Binder |
| --- | --- |
| 112 % of control (GpH7-A5/GpH7-B3/GpL16-k0 = 100) | GpH7-A5/GpH7-B3 variant K334_14T/GpL16-k0 (antibody, human IgG1, kappa, heterodimerized; mutation in one H chain only; also called He Ab) heavy 1: not shown heavy 2: not shown light: DIVMTQSPLSLPVTPGEPASISCQASESLVHSNRNTYLHWYLQKPGQSPQLLIYKVSNRFSGVPDRFSGSGSGTDFTLKISRVEAEDVGVYYCSQNTHVPPTFGQGTKVEIERTVAAPSVFIFPPSDEQLKSGTASVVCLLNNFYPREAKVQWKVDNALQSGNSQESVTEQDSKDSTYSLSSTLTLSKADYEKHKVYACEVTHQGLSSPVTKSFNRGEC |
| 140 % of control (GpH7-A5/GpH7-B3/GpL16-k0 = 100) | GpH7-A5/GpH7-B3 variant P238_08L/GpL16-k0 (antibody, human IgG1, kappa, heterodimerized; mutation in one H chain only; also called He Ab) heavy 1: not shown heavy 2: not shown light: DIVMTQSPLSLPVTPGEPASISCQASESLVHSNRNTYLHWYLQKPGQSPQLLIYKVSNRFSGVPDRFSGSGSGTDFTLKISRVEAEDVGVYYCSQNTHVPPTFGQGTKVEIERTVAAPSVFIFPPSDEQLKSGTASVVCLLNNFYPREAKVQWKVDNALQSGNSQESVTEQDSKDSTYSLSSTLTLSKADYEKHKVYACEVTHQGLSSPVTKSFNRGEC |
| 116 % of control (GpH7-A5/GpH7-B3/GpL16-k0 = 100) | GpH7-A5/GpH7-B3 variant L328_03V/GpL16-k0 (antibody, human IgG1, kappa, heterodimerized; mutation in one H chain only; also called He Ab) heavy 1: not shown heavy 2: not shown light: DIVMTQSPLSLPVTPGEPASISCQASESLVHSNRNTYLHWYLQKPGQSPQLLIYKVSNRFSGVPDRFSGSGSGTDFTLKISRVEAEDVGVYYCSQNTHVPPTFGQGTKVEIERTVAAPSVFIFPPSDEQLKSGTASVVCLLNNFYPREAKVQWKVDNALQSGNSQESVTEQDSKDSTYSLSSTLTLSKADYEKHKVYACEVTHQGLSSPVTKSFNRGEC |
| 155 % of control (GpH7-A5/GpH7-B3/GpL16-k0 = 100) | GpH7-A5/GpH7-B3 variant S267_02A/GpL16-k0 (antibody, human IgG1, kappa, heterodimerized; mutation in one H chain only; also called He Ab) heavy 1: not shown heavy 2: not shown light: DIVMTQSPLSLPVTPGEPASISCQASESLVHSNRNTYLHWYLQKPGQSPQLLIYKVSNRFSGVPDRFSGSGSGTDFTLKISRVEAEDVGVYYCSQNTHVPPTFGQGTKVEIERTVAAPSVFIFPPSDEQLKSGTASVVCLLNNFYPREAKVQWKVDNALQSGNSQESVTEQDSKDSTYSLSSTLTLSKADYEKHKVYACEVTHQGLSSPVTKSFNRGEC |
| 138 % of control (GpH7-A5/GpH7-B3/GpL16-k0 = 100) | GpH7-A5/GpH7-B3 variant L328_04F/GpL16-k0 (antibody, human IgG1, kappa, heterodimerized; mutation in one H chain only; also called He Ab) heavy 1: not shown heavy 2: not shown light: DIVMTQSPLSLPVTPGEPASISCQASESLVHSNRNTYLHWYLQKPGQSPQLLIYKVSNRFSGVPDRFSGSGSGTDFTLKISRVEAEDVGVYYCSQNTHVPPTFGQGTKVEIERTVAAPSVFIFPPSDEQLKSGTASVVCLLNNFYPREAKVQWKVDNALQSGNSQESVTEQDSKDSTYSLSSTLTLSKADYEKHKVYACEVTHQGLSSPVTKSFNRGEC |
| 128 % of control (GpH7-A5/GpH7-B3/GpL16-k0 = 100) | GpH7-A5/GpH7-B3 variant S239_01G/GpL16-k0 (antibody, human IgG1, kappa, heterodimerized; mutation in one H chain only; also called He Ab) heavy 1: not shown heavy 2: not shown light: DIVMTQSPLSLPVTPGEPASISCQASESLVHSNRNTYLHWYLQKPGQSPQLLIYKVSNRFSGVPDRFSGSGSGTDFTLKISRVEAEDVGVYYCSQNTHVPPTFGQGTKVEIERTVAAPSVFIFPPSDEQLKSGTASVVCLLNNFYPREAKVQWKVDNALQSGNSQESVTEQDSKDSTYSLSSTLTLSKADYEKHKVYACEVTHQGLSSPVTKSFNRGEC |
| 124 % of control (GpH7-A5/GpH7-B3/GpL16-k0 = 100) | GpH7-A5/GpH7-B3 variant L328_07I/GpL16-k0 (antibody, human IgG1, kappa, heterodimerized; mutation in one H chain only; also called He Ab) heavy 1: not shown heavy 2: not shown light: DIVMTQSPLSLPVTPGEPASISCQASESLVHSNRNTYLHWYLQKPGQSPQLLIYKVSNRFSGVPDRFSGSGSGTDFTLKISRVEAEDVGVYYCSQNTHVPPTFGQGTKVEIERTVAAPSVFIFPPSDEQLKSGTASVVCLLNNFYPREAKVQWKVDNALQSGNSQESVTEQDSKDSTYSLSSTLTLSKADYEKHKVYACEVTHQGLSSPVTKSFNRGEC |
| 137 % of control (GpH7-A5/GpH7-B3/GpL16-k0 = 100) | GpH7-A5/GpH7-B3 variant S239_09D/GpL16-k0 (antibody, human IgG1, kappa, heterodimerized; mutation in one H chain only; also called He Ab) heavy 1: not shown heavy 2: not shown light: DIVMTQSPLSLPVTPGEPASISCQASESLVHSNRNTYLHWYLQKPGQSPQLLIYKVSNRFSGVPDRFSGSGSGTDFTLKISRVEAEDVGVYYCSQNTHVPPTFGQGTKVEIERTVAAPSVFIFPPSDEQLKSGTASVVCLLNNFYPREAKVQWKVDNALQSGNSQESVTEQDSKDSTYSLSSTLTLSKADYEKHKVYACEVTHQGLSSPVTKSFNRGEC |
| 108 % of control (GpH7-A5/GpH7-B3/GpL16-k0 = 100) | GpH7-A5/GpH7-B3 variant T335_08L/GpL16-k0 (antibody, human IgG1, kappa, heterodimerized; mutation in one H chain only; also called He Ab) heavy 1: not shown heavy 2: not shown light: DIVMTQSPLSLPVTPGEPASISCQASESLVHSNRNTYLHWYLQKPGQSPQLLIYKVSNRFSGVPDRFSGSGSGTDFTLKISRVEAEDVGVYYCSQNTHVPPTFGQGTKVEIERTVAAPSVFIFPPSDEQLKSGTASVVCLLNNFYPREAKVQWKVDNALQSGNSQESVTEQDSKDSTYSLSSTLTLSKADYEKHKVYACEVTHQGLSSPVTKSFNRGEC |
| 115 % of control (GpH7-A5/GpH7-B3/GpL16-k0 = 100) | GpH7-A5/GpH7-B3 variant L328_06M/GpL16-k0 (antibody, human IgG1, kappa, heterodimerized; mutation in one H chain only; also called He Ab) heavy 1: not shown heavy 2: not shown light: DIVMTQSPLSLPVTPGEPASISCQASESLVHSNRNTYLHWYLQKPGQSPQLLIYKVSNRFSGVPDRFSGSGSGTDFTLKISRVEAEDVGVYYCSQNTHVPPTFGQGTKVEIERTVAAPSVFIFPPSDEQLKSGTASVVCLLNNFYPREAKVQWKVDNALQSGNSQESVTEQDSKDSTYSLSSTLTLSKADYEKHKVYACEVTHQGLSSPVTKSFNRGEC |
